Experimental data published in patent publication EP0980526B1, “INHIBITORS OF NUCLEAR PROTEIN/NUCLEAR RECEPTOR INTERACTION” (IMPERIAL CANCER RESEARCH TECHNOLOGY LIMITED, priority 1997, dated 1998).

How the values were obtained:
[1] = target: AAD-ER (acidic activation domain fused to the LBD of the wild-type ER) (human) (UniProt P03372); assay: cell-based or functional assay
[2] = target: AAD-ER (acidic activation domain fused to the LBD of the wild-type ER) (human) (UniProt P03372); assay: yeast two-hybrid
[3] = target: mouse ER (expressed in transfected Hela cells) (mouse) (UniProt P19785); assay: cell-based or functional assay
Sequence of mouse ER (expressed in transfected Hela cells) (mouse) (P19785 whole entry): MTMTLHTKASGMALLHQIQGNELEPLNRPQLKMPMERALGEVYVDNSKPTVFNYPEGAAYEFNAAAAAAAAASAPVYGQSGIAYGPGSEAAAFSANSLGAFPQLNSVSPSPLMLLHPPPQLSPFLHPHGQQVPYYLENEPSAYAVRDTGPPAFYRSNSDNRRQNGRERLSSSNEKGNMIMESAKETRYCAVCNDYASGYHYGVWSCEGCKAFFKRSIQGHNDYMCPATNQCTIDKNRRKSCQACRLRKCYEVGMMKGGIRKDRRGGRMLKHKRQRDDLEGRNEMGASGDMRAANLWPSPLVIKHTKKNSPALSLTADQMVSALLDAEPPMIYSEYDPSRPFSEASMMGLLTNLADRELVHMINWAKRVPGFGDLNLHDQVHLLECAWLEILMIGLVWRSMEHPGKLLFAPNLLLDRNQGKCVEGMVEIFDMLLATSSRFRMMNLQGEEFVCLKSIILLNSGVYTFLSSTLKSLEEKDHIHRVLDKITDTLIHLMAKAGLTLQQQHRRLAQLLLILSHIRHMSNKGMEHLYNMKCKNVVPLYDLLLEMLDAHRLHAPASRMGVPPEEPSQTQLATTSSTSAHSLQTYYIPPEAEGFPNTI

Sequence of AAD-ER (acidic activation domain fused to the LBD of the wild-type ER) (human) (P03372 282-595 limits assumed): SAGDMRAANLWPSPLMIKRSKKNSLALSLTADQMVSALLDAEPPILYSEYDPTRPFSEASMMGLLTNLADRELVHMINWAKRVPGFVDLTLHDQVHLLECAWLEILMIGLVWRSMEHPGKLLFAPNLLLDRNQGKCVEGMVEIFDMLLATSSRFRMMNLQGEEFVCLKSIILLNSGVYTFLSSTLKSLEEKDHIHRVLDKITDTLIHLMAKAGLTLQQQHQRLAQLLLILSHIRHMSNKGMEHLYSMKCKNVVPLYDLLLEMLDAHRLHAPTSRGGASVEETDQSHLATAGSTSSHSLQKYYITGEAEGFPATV
Sequence of DBD-SRC1a 45-53 (P03372 176-282, form in doubt): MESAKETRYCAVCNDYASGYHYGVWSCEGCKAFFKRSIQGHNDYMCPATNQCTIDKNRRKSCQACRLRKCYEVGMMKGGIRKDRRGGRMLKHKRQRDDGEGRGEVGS

Q: How did the reporter activity in the presence of ligand (β-galactosidase, yeast two hybrid) (fold reduction) [1] turn out when “DBD-RIP140 935-943 with valine 935 mutated to alanine (from UniProt P03372 176-282; P48552 935-943)” was run?
A: 10

Q: “DBD-SRC1a 45-53 (from UniProt P03372 176-282)” was tested. Which fold interaction (two-hybrid reporter) [2] did it give?
A: 6 fold

Q: Which activity of ER on the reporter 2ERE-pS2-CAT in transiently transfected Hela cells [3] does the source give for SRC1e M123 (from UniProt Q15788 1-1399) here?
A: < 50%
